Reference: patent publication US6436691B1, “Chemical compounds” (Zeneca Limited, priority 1995, dated 2002)
Where a chain is given by its changes, count along the chain named. Names may count otherwise.

B1: D253R HCPB: mature HCPB with aspartate 253 changed to arginine, C-terminal (His)6-c-myc tag (protein, UniProt P15086 111-417, looked up, variant D253R)
Carboxypeptidase B: ATGHSYEKYNKWETIEAWTQQVATENPALISRSVIGTTFEGRAIYLLKVGKAGQNKPAIFMDCGFHAREWISPAFCQWFVREAVRTYGREIQVTELLDKLDFYVLPVLNIDGYIYTWTKSRFWRKTRSTHTGSSCIGTDPNRNFDAGWCEIGASRNPCDETYCGPAAESEKETKALADFIRNKLSSIKAYLTIHSYSQMMIYPYSYAYKLGENNAELNALAKATVKELASLHGTKYTYGPGATTIYPAAGGSRDWAYDQGIRYSFTFELRDTGRYGFLLPESQIRATCEETFLAIKYVASYVLEHLY
modifications: (His)6-c-myc tag
B2: [G251N,D253K]: HCPB mutant with G251N and D253K, (His)6-c-myc tag (protein, UniProt P15086 111-417, looked up, variant G251N D253K)
Carboxypeptidase B: B1 Carboxypeptidase B with G251N, R253K
modifications: (His)6-c-myc tag
B3: [A248H, D253K]: HCPB mutant with A248H and D253K (protein, UniProt P15086 111-417, looked up, variant A248H D253K)
Carboxypeptidase B: B1 Carboxypeptidase B with A248H, R253K
B4: [G251K, D253R]: HCPB mutant with G251K and D253R (protein, UniProt P15086 111-417, looked up, variant G251K D253R)
Carboxypeptidase B: B1 Carboxypeptidase B with G251K
B5: [G251Q, D253K]: HCPB mutant with G251Q and D253K (protein, UniProt P15086 111-417, looked up, variant G251Q D253K)
Carboxypeptidase B: B1 Carboxypeptidase B with G251Q, R253K
B6: [G251V, D253K]: HCPB mutant with G251V and D253K (protein, UniProt P15086 111-417, looked up, variant G251V D253K)
Carboxypeptidase B: B1 Carboxypeptidase B with G251V, R253K
B7: [A248S, G251S, D253K]: HCPB mutant with A248S, G251S and D253K (protein, UniProt P15086 111-417, looked up, variant A248S G251S D253K)
Carboxypeptidase B: B1 Carboxypeptidase B with A248S, G251S, R253K
B8: [I245H, D253K]: HCPB mutant with I245H and D253K (protein, UniProt P15086 111-417, looked up, variant I245H D253K)
Carboxypeptidase B: B1 Carboxypeptidase B with I245H, R253K
B9: [G251N,D253R]: HCPB mutant with G251N and D253R, (His)6-c-myc tag (protein, UniProt P15086 111-417, looked up, variant G251N D253R)
Carboxypeptidase B: B1 Carboxypeptidase B with G251N
modifications: (His)6-c-myc tag
B10: [G251T,D253R]HCPB: HCPB mutant with G251T and D253R, (His)6-c-myc tag (protein, UniProt P15086 111-417, looked up, variant G251T D253R)
Carboxypeptidase B: B1 Carboxypeptidase B with G251T
modifications: (His)6-c-myc tag

Legend:
Assay type in all cases: biochemical
[1] = Conversion of prodrug of Example 24 to drug of Example 25 by HCPB mutants, HPLC (Example 20); settings: enzyme 15 μg/ml; 0.5 mM prodrug of Example 24; 5 minutes at 37° C.
Protocol: The reaction was stopped by adding MeCN (500 μl) plus 0.2% Trifluoroacetic acid. The amount of drug produced was then quantified by HPLC.
HPLC separation was carried out as described in Example 6 except that a mobile phase of 70% MeCN, 30% distilled water and 0.1% trifluoroacetic acid was used to achieve separation of prodrug (retention time 3.8 minutes) and drug (retention time 4.9 minutes) and the compounds were detected at 260 nm. The amount of drug produced was quantified from calibration curves generated with known amounts of drug.
The amount of [Q54R,D145A,D253K]HCPB and [G251T,D253K]HCPB mutants was reduced to 0.75 μg in the reaction mixture.

[2] = Conversion of Hipp-Asp to hippuric acid by mutant and native human CPB, HPLC assay (Example 6); settings: 5 hr at 37° C.; 4 μg enzyme; 0.5 mM substrate
Protocol: (§1) Purified mutants of human CPB (D253K and D253R; Examples 1-3) and native human CPB, produced as described in Reference Example 12, were assayed for their ability to convert either hippuryl-L-aspartic acid (Hipp-Asp—Reference Example 2), hippuryl-L-glutamic acid (Hipp-Glu—Reference Example 1) or hippuryl-L-arginine (Sigma Chemical Company—cat no. H6625) to hippuric acid using a HPLC based assay.
(§2) The reaction mixture (250 μl) contained 4 μg human CPB (native or mutant) and 0.5 mM Hipp-Asp or Hipp-Glu in 0.025 M Tris-HCL, pH 7.5. Samples were incubated for 5 hr at 37° C. The reactions were terminated by the addition of 250 μl of 80% methanol, 20% distilled water, 0.2% trifluoro acetic acid and the amount of hippuric acid generated was quantified by HPLC.
(§3) HPLC analysis was carried out using a Hewlett Packard 1090 Series 11 (with diode array) HPLC system. Samples (50 μl) were injected onto a Hichrom Hi-RPB column (25 cm) and separated using a mobile phase of 40% methanol, 60% distilled water, 0.1% trifluoro acetic acid at a flow rate of 1 ml/min. The amount of product (hippuric acid) produced was determined from calibration curves generated with known amounts of hippuric acid (Sigma-H6375). The results are shown in Table 1 and are expressed as the percentage conversion of substrate into product in 5 hr at 37° C. with 4 μg enzyme.

[3] = Conversion of Hipp-Glu to hippuric acid by mutant and native human CPB, HPLC assay (Example 6); settings: 5 hr at 37° C.; 4 μg enzyme; 0.5 mM substrate
Protocol: as §1, §2, §3

[4] = Conversion of Hipp-Arg to hippuric acid by mutant and native human CPB, HPLC assay (Example 6); settings: 5 hr at 37° C.; 4 μg enzyme
Protocol: as §1, §2, §3

[5] = Conversion of Hipp-Glu by purified HCPB mutants, 30 minutes, HPLC (Example 17); settings: 0.5 mM substrate, 30 minutes at 37° C.
Protocol: (§4) Purified mutants of human CPB (D253K; [G251K,D253R]; [G251N,D253R]; [I201S,D253K]; [G251N,D253K]; [Q54R,D145A,D253K]; [G251T,D253K]; [G251S,D253K]; [A248N,G251N,D253K]; [A248S,G251N,D253K] and [S205N,G251N,D253K]—described in Examples 3, 12, 13, 16, 28, 30, 31, 32 and 33) were assayed for their ability to convert hippuryl-L-glutamic acid (Hipp-Glu—Reference Example 1), hippuryl-L-aspartic acid (Hipp-Asp—Reference Example 2) and hippuryl-L-arginine (Sigma Chemical Company—cat no. H6625) to hippuric acid using a HPLC based assay similar to that described in Example 6.
(§5) Samples were incubated for 30 minutes at 37° C. The reactions were terminated by the addition of 500 μl of 40% methanol, 60% distilled water, 0.2% trifluoro acetic acid and the amount of hippuric acid generated was quantitated by HPLC as described in Example 6 but using a mobile phase of 20% methanol, 80% 50 mM phosphate buffer, pH 6.5. Hippuric acid was detected at 230 nm. The results are shown in Table 5 and are expressed as the percentage conversion of substrate into product in 30 minutes at 37° C.

[6] = Conversion of Hipp-Asp by purified HCPB mutants, 30 minutes, HPLC (Example 17); settings: 0.5 mM substrate, 30 minutes at 37° C.
Protocol: as §4, §5

[7] = Km and kcat of HCPB mutants with Hipp-Glu (Example 7); settings: Hipp-Glu 0.25-8.0 mM; pH 7.5; 5 h at 37° C.
Protocol: (§6) Hipp-Glu and Hipp-Asp were diluted in range 0.25-8.0 mM and 0.25-5.0 mM respectively in 0.025 M Tris-HCL buffer, pH 7.5. Where necessary substrate samples were adjusted to pH 7.5 with 1M NaOH.
(§7) Samples were incubated for 5 h at 37° C. Reactions were terminated by the addition of 500 μl methanol/distilled water (80/20) containing 0.2% TFA. The amount of hippuric acid produced was quantified by HPLC as described in Example 6.
(§8) Km and Vmax values were calculated using the ENZFITTER software programme (Biosoft, Perkin Elmer).

[8] = Conversion of Hipp-Arg by purified HCPB mutants, 30 minutes, HPLC (Example 17); settings: 0.5 mM substrate, 30 minutes at 37° C.
Protocol: as §4, §5

[9] = Activity against Hipp-Asp in crude E. coli periplasmic shockate relative to D253K or D253R HCPB (Example 16)
Text: A number of other mutant HCPBs have been constructed in a similar manner to the methods described in Reference Examples 7 and 8, and Examples 12, 13, 14 and 15. In each case oligos were constructed to introduce specific changes in the gene sequence by methods similar to those described above. In some cases additional mutations were identified upon complete sequencing of the mutated gene, and these were presumably introduced during the PCR reactions. Mutants with enzyme activity against substrate analogues (see Example 18 below) have been identified, and examples of these are given in Table 4 below. […] This material is subsequently referred to as periplasmic shockate or shockate and is prepared by the following procedure.
1. A single colony was used to inoculate 75 ml of L-broth nutrient media containing 10 μg/ml tetracycline and arabinose to a final concentration of 0.01% (w/v). Incubation was performed at 20° C. with shaking (250 rpm) for about 60 hours.
2. The cells were then harvested by centrifugation at 4° C.
3. The cell pellet was re-suspended in 300 micro-liters of 20% sucrose (w/v) containing 1 mM EDTA in 200 mM Tris-HCl at pH7.5, and incubated at room-temperature for 15 minutes.
4. Periplasmic shockate was generated by the addition of 450 micro-liters of distilled water, and a further incubation at room-temperature for 15 minutes.
5. Cellular remains were removed by centrifugation, and the supernatant assayed for enzyme activity as soon as possible after preparation and kept at 4° C. prior to assay.
(§9) The activity of [G251T,D253K]HCPB was measured using the assay conditions described in Example 17 but using either 50 μl of a neat or 1 in 10 or 1 in 100 dilution of [G251T,D253K]HCPB crude E.coli periplasmic shockate (shockate) sample in place of purified enzyme. Samples were incubated for 24 h at 37° C. […] For other HCPB mutants, the reaction volume was 250 μl and contained 125 μl of neat shockate or 1 in 50 dilution of shockate. The shockate samples were prepared as described in Example 16. The amount of Hippuric acid produced in 24 h was quantified by HPLC as described in Example 17 and the results are shown in Table 6 and are expressed as the percentage conversion of substrate into product in 24 h at 37° C.

[10] = Km and kcat of HCPB mutants with Hipp-Asp (Example 7); settings: Hipp-Asp 0.25-5.0 mM; pH 7.5; 5 h at 37° C.
Protocol: as §6, §7, §8

[11] = Conversion of Hipp-Glu by periplasmic shockate of HCPB mutants, 24 h (Example 18); settings: shockate concentration in reaction mixture 50 %; 24 h at 37° C.
Protocol: as §9

[12] = Conversion of Hipp-Asp by periplasmic shockate of HCPB mutants, 24 h (Example 18); settings: shockate concentration in reaction mixture 50 %; 24 h at 37° C.
Protocol: as §9

Molecule	Prodrug Hydrolysis (%) [1]	Hipp-Glu (% conversion) ([5]; enzyme 2.5 μg/ml)	Hipp-Glu (% conversion) ([5]; enzyme 25 μg/ml)	Hipp-Asp (% conversion) ([6]; enzyme 2.5 μg/ml)	Hipp-Asp (% conversion) ([6]; enzyme 25 μg/ml)	Hipp-Arg (% conversion) ([8]; enzyme 2.5 μg/ml)	Hipp-Arg (% conversion) ([8]; enzyme 25 μg/ml)	Hipp-Asp, activity relative to D253K HCPB or D253R HCPB [9]	other results
B1	18.3%								Hipp-Asp (% conversion to Hippuric acid) [2]: 72%; Hipp-Glu (% conversion to Hippuric acid) [3]: 52%; Hipp-Arg (% conversion to Hippuric acid) [4]: 3%
B2	75.9%	62.4%	100%	1.9%	8.3%	0.4%	1.8%		Km [7]: 2300 µM; kcat, Hipp-Glu [7]: 24 s⁻¹
B3								NAD (No activity detected)	
B4	16.2%	3.2%	5.5%	0.2%	0.2%	0%	0%	NAD (No activity detected)	
B5								NAD (No activity detected)	
B6								NAD (No activity detected)	
B7								NAD (No activity detected)	
B8								NAD (No activity detected)	
B9	66.7%	8.8%	57%	1.4%	9.4%	0%	0%		
B10			96%		29%		0%		Hipp-Glu (% conversion) ([5]; enzyme 1 μg/ml): 16.2%; Km [10]: 1700 µM; kcat, Hipp-Asp [10]: 0.7 s⁻¹; Hipp-Asp (% conversion) ([6]; enzyme 1 μg/ml): 1.2%; Km [7]: 1600 µM; kcat, Hipp-Glu [7]: 7.8 s⁻¹; Hipp-Glu (% conversion) [11]: 65.4%; Hipp-Asp (% conversion) [12]: 14.6%; Hipp-Arg (% conversion) ([8]; enzyme 1 μg/ml): 0%
